From doi:10.1101/565937

Assays:
Test in all cases: EMSA
[1] = target: T1, HuR (UniProt Q15717 1-326)
[2] = target: AUF1p37 (Homo sapiens, UniProt Q14103-4 1-287)
[3] = target: T1, HuR; remark: listed apart in the source

T1 sequence (Q15717 whole entry): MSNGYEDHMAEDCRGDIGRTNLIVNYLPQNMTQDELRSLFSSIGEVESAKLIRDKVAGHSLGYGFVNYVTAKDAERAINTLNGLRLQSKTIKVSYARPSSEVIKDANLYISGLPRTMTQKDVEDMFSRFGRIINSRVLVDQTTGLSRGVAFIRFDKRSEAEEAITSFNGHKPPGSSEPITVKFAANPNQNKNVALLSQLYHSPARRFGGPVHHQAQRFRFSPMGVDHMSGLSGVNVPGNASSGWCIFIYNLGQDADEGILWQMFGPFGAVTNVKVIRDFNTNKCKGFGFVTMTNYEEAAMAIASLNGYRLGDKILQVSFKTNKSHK

Binder	Kd [1]	Kd [2]	binding result [3]
GCUAGUUUUUUUGUACUAUU (ssRNA) [Nrf2 3'-UTR Site 1]	20 ± 5 nM	6 ± 2 nM	–
AAAAACUUAUUUAUACUGUU (ssRNA) [Nrf2 3'-UTR Site 2]	–	25 ± 4 nM	no binding
AAAAAAAUUUUAAGAGCUGG (ssRNA) [Nrf2 3'-UTR Site 3]	75 ± 20 nM	670 ± 82 nM	–
